Data: patent US20210054076A1 (Chugai, published 2021)
Residue numbers refer to the chain shown, from its start.

What was measured:
mouse CLDN3 = biological target: T1, mouse CLDN3 (mouse, UniProt Q9Z0G9 1-219); assay: FACS on Ba/F3 transfectant, antibody 20 micro g/ml, FITC anti-human IgG
T1 construct: whole, on cells; also called mCLDN3; BaF3_mCLDN3
T1 sequence (looked up): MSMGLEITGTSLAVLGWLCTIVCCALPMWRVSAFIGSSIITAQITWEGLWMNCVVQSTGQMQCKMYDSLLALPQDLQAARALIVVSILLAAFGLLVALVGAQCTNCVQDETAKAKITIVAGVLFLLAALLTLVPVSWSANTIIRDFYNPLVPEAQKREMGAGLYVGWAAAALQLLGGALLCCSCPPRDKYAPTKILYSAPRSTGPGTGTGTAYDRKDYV
Description: (§1) To evaluate the binding activity and specificity of the generated CLDN6-TRABs against CLDN6 and other Claudin family antigens, FACS analysis was conducted as follows. Ba/F3 transfectants stably express a kind of protein selected from human CLDN3 (hCLDN3), human CLDN4 (hCLDN4), human CLDN6 (hCLDN6), human CLDN9 (hCLDN9), mouse CLDN3 (mCLDN3), mouse CLDN4 (mCLDN4) and mouse CLDN6 (mCLDN6), were generated using similar method described in WO2008/087978, and named BaF3_hCLDN3, BaF3_hCLDN4, BaF3_hCLDN6, BaF3_hCLDN9, BaF3 mCLDN3, BaF3 mCLDN4, BaF3 mCLDN6, respectively. Each of the CLDN6-TRABs (CH01/CD3, CH02/CD3, CH03/CD3, CH04/CD3) was incubated with the Ba/F3 transfectants at an antibody concentration of 20 micro g/ml in FACS buffer (0.5% BSA containing autoMACS Rinsing Solution, Miltenyl Biotec). Binding activities of each CLDN6-TRAB to the Claudin family proteins (hCLDN3, hCLDN4, hCLDN6, hCLDN9, mCLDN3, mCLDN4, mCLDN6) were examined by incubation of FITC-conjugated goat anti human IgG (BeckmanCoulter), represented as Geo-mean value. Sample processing was conducted on FACSVerse (BD).
(§2) Claudin family proteins have two extracellular domains. The sequence of the first extracellular domain in human CLDN9 is almost the same compared with the first extracellular domain of human CLDN6. For the second extracellular domain of human CLDN9, there are only two amino acids different from the ones at their corresponding positions in human CLDN6 (FIG. 2). The glutamine at position 156 of human Claudin 6 (position 156 in the sequence shown in SEQ ID NO: 44 or 45) was substituted to leucine to make a human CLDN6 mutant comprising the same amino acid as human Claudin 9 at position 156. This human CLDN6 mutant was named as hCLDN6(Q156L) (SEQ ID NO: 53). Ba/F3 transfectant stably express hCLDN6(Q156L) was generated using similar method described in WO2008/087978. The established Ba/F3 transfectant was named BaF3_hCLDN6(Q156L). Binding activity of the generated CLDN6-TRABs against BaF3_hCLDN6(Q156L) was measured using the above mentioned FACS method and the results are shown in FIG. 1 and Table 3.

human CLDN9 = biological target: T2, human CLDN9 (human, UniProt O95484 1-217); assay: as above
T2 construct: whole, on cells; also called hCLDN9; BaF3_hCLDN9
T2 sequence (looked up): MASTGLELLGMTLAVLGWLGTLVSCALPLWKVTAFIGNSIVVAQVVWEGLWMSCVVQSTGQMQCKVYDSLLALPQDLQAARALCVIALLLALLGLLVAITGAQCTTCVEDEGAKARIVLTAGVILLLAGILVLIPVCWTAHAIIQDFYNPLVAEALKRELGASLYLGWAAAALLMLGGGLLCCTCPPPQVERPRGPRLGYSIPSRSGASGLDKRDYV
Description: as §1, §2

mouse CLDN4 = biological target: T3, mouse CLDN4 (mouse, UniProt O35054 1-210); assay: as above
T3 construct: whole, on cells; also called mCLDN4; BaF3_mCLDN4
T3 sequence (looked up): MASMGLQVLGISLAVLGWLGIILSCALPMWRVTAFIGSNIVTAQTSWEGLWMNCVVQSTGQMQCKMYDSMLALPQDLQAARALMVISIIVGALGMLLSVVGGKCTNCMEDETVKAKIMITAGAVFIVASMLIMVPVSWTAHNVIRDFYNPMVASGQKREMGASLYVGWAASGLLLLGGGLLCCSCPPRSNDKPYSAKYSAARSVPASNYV
Description: as §1, §2

mouse CLDN6 = biological target: T4, mouse CLDN6 (mouse, UniProt Q9Z262 1-219); assay: as above
T4 construct: whole, on cells; also called mCLDN6; BaF3_mCLDN6
T4 sequence (looked up): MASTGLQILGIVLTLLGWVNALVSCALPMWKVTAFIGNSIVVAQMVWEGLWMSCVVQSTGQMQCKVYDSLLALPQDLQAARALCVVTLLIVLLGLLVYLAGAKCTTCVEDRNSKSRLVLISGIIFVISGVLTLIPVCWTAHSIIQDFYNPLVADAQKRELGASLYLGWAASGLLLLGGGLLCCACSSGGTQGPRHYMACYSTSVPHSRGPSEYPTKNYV
Description: as §1, §2

human CLDN3 = biological target: T5, human CLDN3 (human, UniProt O15551 1-220); assay: as above
T5 construct: whole, on cells; also called hCLDN3; BaF3_hCLDN3
T5 sequence (looked up): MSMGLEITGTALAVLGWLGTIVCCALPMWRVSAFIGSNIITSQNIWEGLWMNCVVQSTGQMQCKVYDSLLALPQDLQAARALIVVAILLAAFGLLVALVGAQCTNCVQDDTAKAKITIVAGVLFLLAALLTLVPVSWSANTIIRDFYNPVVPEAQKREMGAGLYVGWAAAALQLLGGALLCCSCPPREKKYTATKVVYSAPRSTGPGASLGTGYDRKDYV
Description: as §1, §2

hCLDN6(Q156L) = biological target: T6, hCLDN6(Q156L) (human, UniProt P56747 1-220); assay: as above
T6 construct: Stably expressed on Ba/F3 cells; also called human CLDN6 mutant; BaF3_hCLDN6(Q156L)
T6 chain: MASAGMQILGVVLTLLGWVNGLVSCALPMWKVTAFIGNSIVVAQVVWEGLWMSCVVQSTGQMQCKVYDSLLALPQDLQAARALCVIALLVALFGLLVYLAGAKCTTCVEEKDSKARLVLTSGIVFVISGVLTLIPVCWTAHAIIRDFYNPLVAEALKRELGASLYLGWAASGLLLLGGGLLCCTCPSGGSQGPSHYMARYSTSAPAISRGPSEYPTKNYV
Description: as §1, §2

human CLDN6 [1] = biological target: T7, human CLDN6 (human, UniProt P56747 1-220); assay: as above
T7 construct: 45 is entered here, 44 is equally possible; also called hCLDN6; human Claudin 6
T7 sequence: T6 chain with L156Q
Description: as §1, §2

human CLDN4 = biological target: T8, human CLDN4 (human, UniProt O14493 1-209); assay: as above
T8 construct: whole, on cells; also called hCLDN4; BaF3_hCLDN4
T8 sequence (looked up): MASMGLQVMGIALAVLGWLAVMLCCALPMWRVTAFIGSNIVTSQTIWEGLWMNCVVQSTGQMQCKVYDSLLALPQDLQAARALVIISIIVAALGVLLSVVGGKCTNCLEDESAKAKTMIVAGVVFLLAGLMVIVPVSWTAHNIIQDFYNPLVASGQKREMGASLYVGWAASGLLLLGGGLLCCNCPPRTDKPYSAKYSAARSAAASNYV
Description: as §1, §2

human CLDN6 [2] = biological target: T7, human CLDN6; assay: cell-based or functional assay
human CLDN6 [3] = biological target: T7, human CLDN6; assay: cell-based or functional assay; remark: listed apart in the source
human CLDN6 [4] = biological target: T7, human CLDN6; assay: cell-based or functional assay; remark: listed apart in the source

B1: CH03/CD3 (bispecific antibody, human IgG1, kappa, N297A)
heavy 1: EVQVEQSGPELVKPGASVKISCKTSGYTFTEYTMHWVKQSHGKSLEWIGGINPNNGNTRYNQKFKGKATLTVDKSSSTAYMELRTLTSEDSAVYYCARCGDFDLFFFFAYWGQGTLVTVSAASTKGPSVFPLAPSSKSTSGGTAALGCLVKDYFPEPVTVSWNSGALTSGVHTFPAVLQSSGLYSLSSVVTVPSSSLGTQTYICNVNHKPSNTKVDKKVEPKSCDKTHTCPPCPAPELRGGPKVFLFPPKPKDTLMISRTPEVTCVVVDVSHEDPEVKFNWYVDGVEVHNAKTKPREEQYASTYRVVSVLTVLHQDWLNGKEYKCKVSNKALPAPIEKTISKAKGQPREPQVYTLPPSREEMTKNQVSLTCLVKGFYPSDIAVEWESNGQPENNYKTTPPYLDSDGSFFLYSKLTVDKSRWQQGNVFSCSVMHEALHNHYTQESLSLSP
light 1: DIVMTQSQKFMSTSVGDRVSVTCKASQNVGSNVAWYQQKPGQSPEGLISSASSRFSGVPDRFTGSGSGTDFTLTITNVQSEDLAEYFCQQYNSYPFTFGSGTELEIKRTVAAPSVFIFPPSDEQLKSGTASVVCLLNNFYPREAKVQWKVDNALQSGNSQESVTEQDSKDSTYSLSSTLTLSKADYEKHKVYACEVTHQGLSSPVTKSFNRGEC
heavy 2: QVQLVESGGGVVQPGGSLRLSCAASGFTFSNAWMHWVRQAPGKGLEWVAQIKDKSQNYATYVAESVKGRFTISRADSKNSIYLQMNSLKTEDTAVYYCRYVHYAAGYGVDIWGQGTTVTVSSASTKGPSVFPLAPSSKSTSGGTAALGCLVKDYFPEPVTVSWNSGALTSGVHTFPAVLQSSGLYSLSSVVTVPSSSLGTQTYICNVNHKPSNTKVDKKVEPKSCDKTHTCPPCPAPELRGGPKVFLFPPKPKDTLMISRTPEVTCVVVDVSHEDPEVKFNWYVDGVEVHNAKTKPREEQYASTYRVVSVLTVLHQDWLNGKEYKCKVSNKALPAPIEKTISKAKGQPREPQVYTLPPSRKEMTKNQVSLTCLVKGFYPSDIAVEWESNGQPENNYKTTPPYLDSDGSFFLYSKLTVDKSRWQQGNVFSCSVMHEALHNHYTQKSLSLSP
light 2: DIVMTQSPLSLPVTPGEPASISCRSSQPLVHSNRNTYLHWYQQKPGQAPRLLIYKVSNRFSGVPDRFSGSGSGTDFTLKISRVEAEDVGVYYCGQGTQVPYTFGQGTKLEIKRTVAAPSVFIFPPSDEQLKSGTASVVCLLNNFYPREAKVQWKVDNALQSGNSQESVTEQDSKDSTYSLSSTLTLSKADYEKHKVYACEVTHQGLSSPVTKSFNRGEC
notes: Made by Fab arm exchange of the bivalent anti-CLDN6 antibody CH03 with the bivalent anti-CD3 antibody CD3-1; human IgG1 constant region; One anti-CLDN6 arm and one anti-CD3 arm; also called CLDN6-TRAB; CLDN6-targeted T-cell redirecting bispecific antibody
Mouse CLDN3
  Geo-mean value of FACS: 26
Human CLDN9
  Geo-mean value of FACS: 184
Mouse CLDN4
  Geo-mean value of FACS: 22
Mouse CLDN6
  Geo-mean value of FACS: 559
Human CLDN3
  Geo-mean value of FACS: 37
hCLDN6(Q156L)
  Geo-mean value of FACS: 98
Human CLDN6 [1]
  Geo-mean value of FACS: 7700
Human CLDN4
  Geo-mean value of FACS: 35
Human CLDN6 [2]
  EC50 (read off the curve), Jurkat/NFAT-RE luciferase reporter, target cells PA-1: ~0.02 nM
Human CLDN6 [3]
  EC50 (read off the curve), Jurkat/NFAT-RE luciferase reporter, target cells ABC-1: ~0.04 nM

B2: CH01/CD3 (bispecific antibody, human IgG1, kappa, N297A)
heavy 1: EVKLVESGGGLVKPGGSLKLSCAASGFTFNSYTMSWVRQTPAKRLEWVVTISSGGGRTYYPDSVKGRFTISRDNARNTLYLQMSSLRSEDTAMYYCIRGDYRYDGFAYWGQGTLVTVSTASTKGPSVFPLAPSSKSTSGGTAALGCLVKDYFPEPVTVSWNSGALTSGVHTFPAVLQSSGLYSLSSVVTVPSSSLGTQTYICNVNHKPSNTKVDKKVEPKSCDKTHTCPPCPAPELRGGPKVFLFPPKPKDTLMISRTPEVTCVVVDVSHEDPEVKFNWYVDGVEVHNAKTKPREEQYASTYRVVSVLTVLHQDWLNGKEYKCKVSNKALPAPIEKTISKAKGQPREPQVYTLPPSREEMTKNQVSLTCLVKGFYPSDIAVEWESNGQPENNYKTTPPYLDSDGSFFLYSKLTVDKSRWQQGNVFSCSVMHEALHNHYTQESLSLSP
light 1: DIQMTQSPASLSASVGETVTITCRASENIDSYLAWYQQKQGKSPQLLVYASTLLVDGVPSRFSGSRSGTQFSLKINSLQSEDVARYYCQHYYSIPYTFGSGTKLEIKRTVAAPSVFIFPPSDEQLKSGTASVVCLLNNFYPREAKVQWKVDNALQSGNSQESVTEQDSKDSTYSLSSTLTLSKADYEKHKVYACEVTHQGLSSPVTKSFNRGEC
heavy 2: B1 heavy 2
light 2: B1 light 2
notes: Made by Fab arm exchange of the bivalent anti-CLDN6 antibody CH01 with the bivalent anti-CD3 antibody CD3-1; human IgG1 constant region; One anti-CLDN6 arm and one anti-CD3 arm; also called CLDN6-TRAB; CLDN6-targeted T-cell redirecting bispecific antibody
Mouse CLDN3
  Geo-mean value of FACS: 26
Mouse CLDN4
  Geo-mean value of FACS: 31
Human CLDN3
  Geo-mean value of FACS: 37
hCLDN6(Q156L)
  Geo-mean value of FACS: 114
Human CLDN6 [1]
  Geo-mean value of FACS: 4480
Human CLDN4
  Geo-mean value of FACS: 51
Human CLDN6 [4]
  EC50 (read off the curve), Jurkat/NFAT-RE luciferase reporter, target cells HuH-7: ~0.09 nM
